Measured values published in patent publication US12466853B2, “Selective targeting of apoptosis proteins by structurally-stabilized and/or cysteine-reactive NOXA peptides” (priority 2017, dated 2025).

Molecular target: T1, full-length BFL-1 (Homo sapiens, UniProt Q16548)
T1 construct: Recombinant full-length BFL-1 (aa-175) containing an N-terminal hexahistidine tag; made in house
T1 sequence (Q16548 1-175): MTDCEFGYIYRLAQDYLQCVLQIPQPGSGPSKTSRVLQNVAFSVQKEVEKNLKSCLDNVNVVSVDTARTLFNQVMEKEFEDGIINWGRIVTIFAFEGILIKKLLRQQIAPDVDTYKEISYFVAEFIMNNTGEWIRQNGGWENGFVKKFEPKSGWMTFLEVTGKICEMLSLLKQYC
Test: Covalent crosslinking to full-length BFL-1, recombinant and HA-tagged expressed in 293T cells
Format: binding
Settings: recombinant and expressed in 293T cells; somewhat reduced efficiency vs C-terminally truncated species
Description: We confirmed that both of our lead constructs could covalently crosslink to full-length BFL-1 protein, which bears a C-terminal helix that could potentially compete with D-NA-NOXA SAHBs for interaction at the canonical BH3-binding pocket in cancer cells. We generated recombinant full-length BFL-1 and expressed HA-tagged full-length BFL-1 in 293T cells, and then conducted crosslinking analyses in vitro and in treated cells, respectively.
Recombinant full-length BFL-1 (aa-175) containing an N-terminal hexahistidine tag was cloned into the PTYB1 vector (New England Biolabs) and purified as above except for the addition of a chitin affinity chromatography and DTT elution step. Protein purity and identity was confirmed by Coomassie staining and western blot analysis using a mouse monoclonal anti-His6 tag antibody (Abcam).
His-BFL-1ΔC C4S/C19S protein (5 μM) was pre-treated with 10 mM DTT in 50 mM Tris (pH 8.0) and 100 mM NaCl for 30 min at room temperature (final volume […]) and then combined with a 10:1 molar ratio of cysteine-reactive NOXA SAHB for an additional 1-hr incubation at room temperature. The samples were then boiled in 3× loading buffer with DTT and electrophoresed on 12% Bis-Tris gel, then subjected to Coomassie staining.

## JAT8LREFGDXLNFRQ [D-NA-NOXA-15 R31E]
  covalent crosslinking to full-length BFL-1: covalent crosslinking to recombinant and expressed full-length BFL-1
